B1: W301088-1.145.16-z3-p1-uIgG1KV320 (antibody, V domains shown)
VH: QVQLQESGPGLVKPSQTLSLTCTVTDYSITGDYAWNWIRQHPGKGLEWIGYISYSGSTSYNPSLQSRVTISRDTSKNQFSLKLSSVTAADTAVYFCARSLGRRWYFVVWGQGTTVTVSS
VL: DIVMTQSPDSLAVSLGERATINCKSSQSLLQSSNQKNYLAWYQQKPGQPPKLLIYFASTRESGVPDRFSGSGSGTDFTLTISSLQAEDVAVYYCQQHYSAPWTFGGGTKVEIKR
notes: Humanized, PTM-removed (VL N027dQ) human IgG1 LALA kappa antibody; also called WBP301088; W301088-z3-p1
B2: Enoblituzumab (MacroGenics) (antibody, V domains shown)
VH: EVQLVESGGGLVQPGGSLRLSCAASGFTFSSFGMHWVRQAPGKGLEWVAYISSDSSAIYYADTVKGRFTISRDNAKNSLYLQMNSLRDEDTAVYYCGRGRENIYYGSRLDYWGQGTTVTVSS
VL: DIQLTQSPSFLSASVGDRVTITCKASQNVDTNVAWYQQKPGKAPKALIYSASYRYSGVPSRFSGSGSGTDFTLTISSLQPEDFATYYCQQYNNYPFTFGQGTKLEIKR
B3: W301088-1.145.16-xIgG1KV320 (antibody, V domains shown)
VH: DVQLQESGPGLVKPSQSLSLTCTVTDYSITGDYAWNWIRQFPGNKLEWMGYISYSGSTSYNPSLQSRISITRDTSKNQFFLQLNSVTSEDTATYFCARSLGRRWYFVVWGAGTTVTVSA
VL: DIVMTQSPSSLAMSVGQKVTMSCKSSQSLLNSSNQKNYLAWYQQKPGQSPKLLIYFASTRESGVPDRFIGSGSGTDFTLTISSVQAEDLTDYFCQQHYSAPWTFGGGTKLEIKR

One may read the Kd as the free concentration of one partner at which half of the binding sites on the other are occupied at equilibrium, for simple one-to-one binding. What is called koff is the rate constant with which the complex falls apart. By kon is commonly meant the second-order rate constant of association. Usually EC50 stands for the concentration that produces a half-maximal response.

One assay has as its target T1, Human B7-H3/CD276 protein, His tag (2IgB7H3) (human, UniProt Q5ZPR3-2 29-245).
T1 construct: Bought protein; 25.2 kDa used in the SPR calculation; also called human 2IgB7H3; ACRO B73-H52E2; not shown: His tag
T1 sequence (looked up): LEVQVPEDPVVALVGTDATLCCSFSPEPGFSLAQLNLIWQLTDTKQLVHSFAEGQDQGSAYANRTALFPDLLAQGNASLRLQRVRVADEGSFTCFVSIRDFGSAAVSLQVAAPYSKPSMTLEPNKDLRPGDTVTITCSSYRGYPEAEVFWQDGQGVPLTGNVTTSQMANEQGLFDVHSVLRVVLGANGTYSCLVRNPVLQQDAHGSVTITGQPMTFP
As to the kind of experiment: SPR (Biacore 8K), antibody captured on anti-human Fc IgG, human 2IgB7H3 as analyte, 1:1 model. As for the experimental part:
(§1) The affinity of antibodies for human 2IgB7H3 was determined using surface plasmon resonance (SPR). The affinity of antibodies for human 2IgB7H3 was determined by Biacore 8K. An activator was prepared by mixing 400 mM EDC and 100 mM NHS (GE) immediately prior to injection into the channel. The CMS sensor chip was activated for 420 seconds with the activator. Goat anti-human Fc IgG (30 μg/mL in 10 mM NaAc, pH 4.5) was then injected into the channel at a flow rate of 10 μL/min for 420 seconds. The chip was deactivated by 1 M ethanolamine hydrochloric acid. The antibodies diluted in running buffer (1×HBS-EP+) were injected into the channel at a flow rate of 10 μL/min for 30 seconds. […] Glycine (10 mM, pH 1.5) was injected as regeneration buffer after the dissociation phase.
The sensorgrams for the reference channel and the buffer channel were subtracted from the test sensorgrams. The experimental data were fitted with a 1:1 binding model. The molecular weight of the human 2IgB7H3 used in the calculation was 25.2 kDa.
(§2) The experimental data were fitted by a 1:1 binding model bundled with the Biacore 8K evaluation software.
As to B1, the Kd is 46.4 nM, the koff turned out to be 0.0141 s⁻¹ and the kon was 303000 M⁻¹ s⁻¹.

With B2, the Kd stood at 261 nM, the koff was 0.0168 s⁻¹ and the on-rate (kon) amounted to 64400 M⁻¹ s⁻¹.

B3 registered a Kd of 57.7 nM, a koff of 0.0136 s⁻¹ and a kon of 235000 M⁻¹ s⁻¹.

The next assay has as its target T2, Cynomolgus monkey B7-H3/CD276 protein, His tag (cynomolgus monkey).
T2 construct: Bought protein; 49 kDa used in the SPR calculation; also called ACRO B73-C52Ha
As to the kind of experiment: SPR (Biacore 8K), antibody captured on anti-human Fc IgG, cynomolgus monkey B7H3 as analyte, 1:1 model. As for the experimental part:
as §1, with “cynomolgus monkey B7H3” for “human 2IgB7H3”
The sensorgrams for the reference channel and the buffer channel were subtracted from the test sensorgrams. […] The molecular weight of the cynomolgus monkey B7H3 used in the calculation was 49 kDa.
as §2
In general terms: In SPR one partner is held on a chip, and binding of the other changes the refractive index at the surface.
B1 displayed a Kd of 0.0574 nM, a koff of 3.02e-05 s⁻¹ and a kon of 527000 M⁻¹ s⁻¹.

Molecule B2 registered a Kd of 0.441 nM, a koff of 8.14e-05 s⁻¹ and a kon of 185000 M⁻¹ s⁻¹.

B3 came in with a Kd of 0.0564 nM, a koff of 2.94e-05 s⁻¹ and a kon of 521000 M⁻¹ s⁻¹.

The next assay has as its target T3, human full-length B7H3 expressed on MCF-7 cells (human, UniProt Q5ZPR3 29-534).
T3 construct: also called human B7H3-expressing cells MCF-7
T3 sequence: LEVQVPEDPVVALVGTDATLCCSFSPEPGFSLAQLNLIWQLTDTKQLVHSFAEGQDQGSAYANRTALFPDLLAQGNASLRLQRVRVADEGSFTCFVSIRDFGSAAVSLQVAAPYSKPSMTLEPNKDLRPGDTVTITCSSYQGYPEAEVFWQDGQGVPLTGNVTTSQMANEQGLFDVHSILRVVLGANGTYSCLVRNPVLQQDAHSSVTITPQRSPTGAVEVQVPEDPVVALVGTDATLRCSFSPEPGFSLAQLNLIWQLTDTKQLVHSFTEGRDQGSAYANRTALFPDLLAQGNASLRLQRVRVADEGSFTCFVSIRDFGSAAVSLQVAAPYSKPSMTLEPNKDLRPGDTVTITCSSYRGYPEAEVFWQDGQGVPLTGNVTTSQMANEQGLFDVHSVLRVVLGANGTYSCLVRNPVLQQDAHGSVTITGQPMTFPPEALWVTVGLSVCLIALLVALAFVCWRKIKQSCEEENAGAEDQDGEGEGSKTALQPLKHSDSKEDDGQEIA
As to the kind of experiment: flow cytometry (FACS) on MCF-7 cells expressing human full-length B7H3. As for the experimental part:
FACS was used to detect the binding of antibodies to human B7H3. This method allows quantitative analysis and identification of specific molecules expressed on the surface of living cells. Unlabeled cells were used as a control to set a threshold before the assay, and the percentage change for each group that exceeded the fluorescence intensity threshold was analyzed. MCF-7 cells expressing human full-length B7H3 (1×10⁵ cells/well) were incubated with various concentrations of antibodies (3.16-fold serially diluted with 1×DPBS/1% BSA from 50 nM to 0.0005 nM) in a volume of 100 μL/well in a refrigerator set to 4° C. for 1 h. Anti-human B7H3 reference antibody enoblituzumab (MacroGeneics) was used as a positive control. Human IgG1 isotype antibody was used as a negative control. After washing the cells with 1×DPBS/1% BSA, Alexa 647 goat anti-human antibody (diluted in a 1:500 ratio in 1×DPBS/1% BSA) was added. The cells were incubated in a refrigerator set to 4° C. for 0.5 h in the dark. The mean fluorescence intensity (MFI) of the cells was measured by a flow cytometry and analyzed by FlowJo. EC₅₀ values were calculated by four-parameter non-linear regression analysis using GraphPad Prism 7 software.
(In general: A flow cytometer gives signals particle by particle.)
Regarding B1, the EC50 turned out to be 1.08 nM.

B2 returned an EC50 of 2.49 nM.

B3 had an EC50 of 1.16 nM.

For another assay, the target named is T4, cynomolgus monkey B7H3 on transfected FlpinCHO cells (cynomolgus monkey).
T4 construct: whole, on cells; also called W3XX088-FlpinCHO.cPro1.pool
As to the kind of experiment: flow cytometry (FACS) on FlpinCHO cells transfected with cynomolgus monkey B7H3. How it is done:
FACS was used to detect the binding of antibodies to cynomolgus monkey B7H3. FlpinCHO cells were transfected with cynomolgus monkey B7H3 (W3XX088-FlpinCHO.cProl.pool) (1×10⁵ cells/well), and the transfected cells were incubated with various concentrations of antibodies (3.16-fold serially diluted with 1×DPBS/1% BSA from 50 nM to 0.0005 nM) in a volume of 100 μL/well in a refrigerator set to 4 ° C. for 1 h. Anti-human B7H3 reference antibody enoblituzumab (MacroGeneics) was used as a positive control. Human IgG1 isotype antibody was used as a negative control. After washing the cells with 1×DPBS/1% BSA, Alexa 647 goat anti-human antibody (diluted in a 1:500 ratio in 1×DPBS/1% BSA) was added. The cells were incubated in a refrigerator set to 4° C. for 0.5 h in the dark. The mean fluorescence intensity (MFI) of the cells was measured by a flow cytometry and analyzed by FlowJo. EC₅₀ values were calculated by four-parameter non-linear regression analysis using GraphPad Prism 7 software.
For the molecule B1, the EC50 is 4.68 nM.

B2 registered an EC50 of 9.58 nM.

Regarding B3, the EC50 came out at 5.25 nM.

Source of the values: patent US20240148892A1 (DUALITY BIOLOGICS SUZHOU, published 2024).
